Experimental data published in US7871610B2, “Antibodies to Tie1 ectodomain” (Dyax Corp., priority 2003, dated 2011).

What was measured:
[1] = test system: bFGF-induced angiogenesis; assay: […] plug assay, bFGF-induced angiogenesis in NMRI nu/nu mice; type: in vivo, mouse
Protocol: The germlined variant of the E3 IgG antibody was evaluated in an in vivo assay for angiogenesis induced by bFGF in […]™ plugs. Growth factor reduced […]™ (BD Biosciences, catalog # 354230) was supplemented with 80 ng/ml of bFGF (R&D Systems, catalog #234-FSE). The A2-SV or an IgG4 E3 antibody (10 μg/ml) or PBS was injected subcutaneously into the abdominal area of NMRI nu/nu mice (150 μl of Matrigel/plug).
In the first assay, two mice were injected with […]™ supplemented with bFGF and soluble VEGFR-1 (10 μg/ml) as a positive control for an angiogenic inhibitor. At day 7 post-implantation mice were anesthetized and perfused through heart with 4% paraformaldehyde (PFA) in phosphate buffered saline (PBS). […]™ plugs and a piece of liver were removed and embedded in paraffin. Sections were cut and stained with hematoxylin and eosin (H&E).
In a second assay, mice were treated as described above, and then anesthetized eight days post-implantation and injected with fluorescein-conjugated tomato (lycopersicon esculentum) lectin (100 μg in 200 μl of PBS; Vector, catalog #FL-1171) into the tail vein. After five min circulation the animals were perfused through the heart with 10 ml of PBS followed by 10 ml of 4% PFA in PBS. […]™ plugs and pieces of kidney and liver were removed and frozen in OCT (Tissue-Tek). Nuclei were visualized on sections by using […]® mounting medium containing DAPI (Vector) and analyzed under fluorescence microscopy.

[2] = target: T1, recombinant human Tie1-Fc (Homo sapiens, UniProt P35590); assay: BIAcore, E3 Fabs on recombinant human Tie1-Fc; type: binding; details: Fab
T1 construct: selected against the Tie1 extracellular domain fused to human Fc or to a histidine purification tag
T1 sequence (P35590 22-759 limits assumed): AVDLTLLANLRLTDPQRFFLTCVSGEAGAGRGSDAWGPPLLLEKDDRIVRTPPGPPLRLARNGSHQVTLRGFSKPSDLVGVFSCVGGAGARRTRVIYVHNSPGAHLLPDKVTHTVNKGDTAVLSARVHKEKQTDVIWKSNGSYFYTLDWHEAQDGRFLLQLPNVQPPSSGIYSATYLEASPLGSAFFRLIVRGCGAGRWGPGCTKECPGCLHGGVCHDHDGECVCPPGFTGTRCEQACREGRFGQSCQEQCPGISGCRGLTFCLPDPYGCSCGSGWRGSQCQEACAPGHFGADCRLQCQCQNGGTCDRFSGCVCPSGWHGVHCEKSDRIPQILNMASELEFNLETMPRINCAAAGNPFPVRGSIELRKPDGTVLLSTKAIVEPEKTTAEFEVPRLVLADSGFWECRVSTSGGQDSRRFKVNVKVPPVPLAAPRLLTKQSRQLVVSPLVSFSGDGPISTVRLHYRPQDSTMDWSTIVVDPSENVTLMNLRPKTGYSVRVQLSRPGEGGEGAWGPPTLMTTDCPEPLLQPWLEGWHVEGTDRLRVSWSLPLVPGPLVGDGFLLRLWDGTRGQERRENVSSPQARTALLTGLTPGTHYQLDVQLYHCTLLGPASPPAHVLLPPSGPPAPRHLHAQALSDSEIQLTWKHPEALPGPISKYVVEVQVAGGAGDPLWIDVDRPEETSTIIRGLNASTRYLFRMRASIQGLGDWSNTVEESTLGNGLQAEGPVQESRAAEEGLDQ
Protocol: Recombinant purified human Tie1-Fc antigen (Stock 2.45 mg/ml) was biotinylated using the EZ-link Sulfo-NHS-SS-Biotin (Pierce, Cat. 21331). The reaction was performed for 2 hours on ice in 50 mM sodium carbonate buffer, pH 9.6, in the presence of a 5-fold molar excess of biotinylating agent and was stopped by the addition of Tris-HCl, pH 7.5 (50 mM final concentration) followed by a 1-hour incubation on ice. Samples were then dialyzed against PBS. The antigen was then diluted 1/100 fold in HBS and was then captured onto a streptavidin chip. This was coated to a density of 830RU (resonance units). All analysis was performed in HBS buffer. The parental Fab E3 and germlined E3 Fab were prepared as described above. A stock solution of 0.587 mg/ml (11740 nM) was diluted 1/587 in HBS+BSA to obtain a stock of 20 nM and the germlined Fab E3 0.025 mg/ml (500 nM) was diluted 1/25 in HBS+BSA to obtain a stock of 20 nM. Serial dilutions were made of each Fab preparation to obtain 10 nM, 5 nM, 2.5 nM, and 1.25 nM solutions. For the association phase samples were injected at 30 μl/min for 4 minutes using kinject program. […] All samples were run and analyzed in duplicate.
Sensorgrams were analyzed using the simultaneous ka/kd fitting program with 1:1 model in the BIAEVALUATION™ software 3.1.

B1: E3: human anti-Tie1 antibody from Fab phage library; HC SEQ ID NO:114, LC SEQ ID NO:116 (antibody, V domains shown)
VH: EVQLLESGGGLVQPGGSLRLSCAASGFTFSMYGMVWVRQAPGKGLEWVSVISPSGGNTGYADSVKGRFTISRDNSKNTLYLQVNSLRAEDTAVYYCARAPRGYSYGYYYWGQGTLVTVSSASTKGPSVFPLAPSSKSTSGG
VL: DIQMTQSPLSLSASVGDRVTITCRASQGIGHYLAWYQQKPGKVPKLLIYTASTLQSGVPSRFSGSGSGTDFTLTINSLQPEDVATYYCQQFNSYPHTFGQGTRLDIK
modifications: Synthetically generated peptide
- bFGF-induced angiogenesis in vivo ([1]; conclusion from the two experiments): can inhibit bFGF-induced angiogenesis in vivo
- vessel-like structures in MATRIGEL plugs (H&E staining) ([1]; first assay, day 7, bFGF 80 ng/ml, antibody 10 μg/ml in plug, E3 = germlined variant, IgG4): neither modification of the matrix nor organization of the cells
- fluorescein-lectin staining of MATRIGEL plugs ([1]; second assay, eight days post-implantation, antibody 10 μg/ml in plug): no staining could be detected
- effect of germlining on binding activity [2]: minimal effect on the binding activity
